Source: PMC3268058 (2010)

Molecular target: SRC SH3 domain (GST-SH3(SRC)) 83-139 (Gallus gallus, UniProt P00523)
Assay: fluorescence polarization competition

Kd [µM]	Binder
0.55	VSLARRPLPPLPRL [AGT(PP2) fusion]
7	RAARPLPPLPP [AGT(PP3) fusion]
